Data reported in article PMC5499601 (Nucleic Acids Research, 2017).
Changes are numbered by the printed parent chain. Like-named read-outs stand apart in the source and are kept apart here.

Experiments:
Test in all cases: EMSA
BsSpo0J Q140R = target: T1, BsSpo0J Q140R (UniProt P26497 1-282, Q140R)
T1 sequence: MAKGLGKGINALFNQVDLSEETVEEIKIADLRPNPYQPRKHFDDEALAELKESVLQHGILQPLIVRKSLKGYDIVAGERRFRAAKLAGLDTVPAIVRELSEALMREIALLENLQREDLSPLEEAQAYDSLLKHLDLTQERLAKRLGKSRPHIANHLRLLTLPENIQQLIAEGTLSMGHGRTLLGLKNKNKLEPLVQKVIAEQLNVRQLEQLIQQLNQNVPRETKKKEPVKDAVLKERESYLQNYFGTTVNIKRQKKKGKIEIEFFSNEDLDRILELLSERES

BsSpo0J R39A = target: T2, BsSpo0J R39A (UniProt P26497 1-282, R39A)
T2 sequence: T1 sequence with R39A, R140Q

BsSpo0J R79A [1] = target: T3, BsSpo0J R79A (UniProt P26497 1-282, R79A)
T3 sequence: T1 sequence with R79A, R140Q

BsSpo0J E52R = target: T4, BsSpo0J E52R (UniProt P26497 1-282, E52R)
T4 sequence: T1 sequence with E52R, R140Q

BsSpo0J F81A = target: T5, BsSpo0J F81A (UniProt P26497 1-282, F81A)
T5 sequence: T1 sequence with F81A, R140Q

BsSpo0J R82A = target: T6, BsSpo0J R82A (UniProt P26497 1-282, R82A)
T6 sequence: T1 sequence with R82A, R140Q

BsSpo0J R105E = target: T7, BsSpo0J R105E (UniProt P26497 1-282, R105E)
T7 sequence: T1 sequence with R105E, R140Q

BsSpo0J R80A = target: T8, BsSpo0J R80A (UniProt P26497 1-282, R80A)
T8 sequence: T1 sequence with R80A, R140Q

BsSpo0J M104A = target: T9, BsSpo0J M104A (UniProt P26497 1-282, M104A)
T9 sequence: T1 sequence with M104A, R140Q

BsSpo0J R79A [2] = target: T3, BsSpo0J R79A; remark: listed apart in the source

Measured: binding result

B1: 24-bp parS (dsDNA)
DNA 1: AGAATGTTCCACGTGAAACAAAGA
DNA 2: TCTTTGTTTCACGTGGAACATTCT
binds: BsSpo0J Q140R | BsSpo0J R39A | BsSpo0J R79A [1] | BsSpo0J E52R | BsSpo0J F81A | BsSpo0J R82A | BsSpo0J R105E | BsSpo0J R80A | BsSpo0J M104A

B2: 39-bp parS (dsDNA)
DNA 1: CAGTTGAATCAGAATGTTCCACGTGAAACAAAGAAAAAA
DNA 2: TTTTTTCTTTGTTTCACGTGGAACATTCTGATTCAACTG
binds: BsSpo0J R79A [2]
